For one molecule, Kd results are on record in article PMC4954732, “Sterol Biosynthesis and Azole Tolerance Is Governed by the Opposing Actions of SrbA and the CCAAT Binding Complex”.

The target in this series is T1, SrbA bHLHZ (Aspergillus fumigatus, UniProt Q4WIN1 161-267).
T1 sequence: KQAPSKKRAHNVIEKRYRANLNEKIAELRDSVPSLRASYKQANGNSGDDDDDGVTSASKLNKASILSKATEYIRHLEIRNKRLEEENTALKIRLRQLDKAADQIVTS
Description: SPR; apparent Kd; Rmax 197.6, two homodimers proposed; SPR on immobilised biotinylated duplexes, 1:1 model with mass transport; buffer, salt, pH and temperature not stated (protocols of refs 19, 54). The note with it: protein: recombinant; chain copies: 2; label: 5' biotin on strand 1; blunt. In general terms: SPR reads the build-up and loss of mass on a sensor chip optically.

B1: SRE1+SRE2 (cyp51Ap-320-32) (dsDNA)
DNA 1: AGAATCACGCGGTCCGGATGTGTGCTGAGCCG
DNA 2: CGGCTCAGCACACATCCGGACCGCGTGATTCT
As to B1, the Kd was determined as 22 nM.
